Reference: patent publication US9260500B2, “Peptide and use thereof” (Takeda Pharmaceutical Company Limited, priority 2009, dated 2016)
Starred links: 1 amine or outer side, 2 acyl side, 3 side chain; linkers in the order of their positions; H or OH if unused. Non-standard residues stand in square brackets, D forms with d. *: point of attachment. Azetidine3carboxylic = O=C(C1CN([*:1])C1)[*:2]; Phe(4-NH2) = Nc1ccc(C[C@H](N)C(=O)O)cc1; Phe(2-Me) = Cc1ccccc1C[C@H](N)C(=O)O; 4Pal = N[C@@H](Cc1ccncc1)C(=O)O; Aad = N[C@@H](CCCC(=O)O)C(=O)O; Cha = N[C@@H](CC1CCCCC1)C(=O)O; Gly(cPr) = N[C@H](C(=O)O)C1CC1; NMeS = CN[C@@H](CO)C(=O)O; Isobutyryl = CC(C)C(=O)*; Nle = CCCC[C@H](N)C(=O)O; Dab = NCC[C@H](N)C(=O)O; Abu = CC[C@H](N)C(=O)O; Aib = CC(C)(N)C(=O)O; Bz = O=C(c1ccccc1)*

Experiments:
human Y2 receptor [1] = molecular target: T1, human Y2 receptor (Homo sapiens, UniProt P49146); experiment: Receptor Binding Assay (RBA) for Human Y2, [125I]-PYY displacement on hY2R/CHO membrane fraction; conditions: IC50 of test compound/IC50 of PYY(3-36) (PYY(3-36) taken as 1)
T1 construct: expressed in transfected cells; membrane fraction
T1 sequence (P49146 1-381): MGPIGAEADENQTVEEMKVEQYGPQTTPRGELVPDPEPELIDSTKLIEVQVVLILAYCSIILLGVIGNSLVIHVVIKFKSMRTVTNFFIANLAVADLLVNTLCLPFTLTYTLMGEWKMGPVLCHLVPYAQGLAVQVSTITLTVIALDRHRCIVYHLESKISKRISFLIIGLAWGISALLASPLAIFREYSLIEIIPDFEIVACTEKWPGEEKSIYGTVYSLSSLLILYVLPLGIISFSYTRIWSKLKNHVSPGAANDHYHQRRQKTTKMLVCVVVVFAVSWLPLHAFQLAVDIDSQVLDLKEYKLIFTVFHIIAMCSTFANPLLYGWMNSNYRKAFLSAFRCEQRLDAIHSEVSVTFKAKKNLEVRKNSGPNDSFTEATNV
Method in brief: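 hY2R stably expressed in CHO/dhfr− cells; membrane fraction prepared from cells disrupted in 10 mM NaHCO3, 5 mM EDTA buffer with protease inhibitors. Binding read as displacement of [125I]-PYY.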

human Y2 receptor [2] = molecular target: T1, human Y2 receptor; experiment: Human Y2 Receptor G Protein Binding Assay (GBA), [35S]GTPγS; type: biochemical; conditions: EC50 of test compound/EC50 of PYY(3-36) (PYY3-36 taken as 1), hY2R/CHO membrane fraction
Method in brief: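 Agonism measured as [35S]GTPγS binding, read by GF/C filtration and scintillation counting after 120 min at room temperature, using human Y2 membranes at 1 μg protein/mL in pH 7.4 Tris/MgCl2/NaCl/GDP buffer. Compound serially diluted 100 μM–1 nM; EC50 normalized to PYY(3-36) (ratio = compound/PYY).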

Row | Substance | RBA IC50 Ratio (human Y2 receptor [1]) | GBA EC50 Ratio (human Y2 receptor [2])
1 | Ac-[Aad23, D-Pro24, Cha27,28,36, Aib31]-PYY(23-36) (Ac-[Aad][dP]RH[Cha][Cha]NL[Aib]TRQR[Cha]-NH2; SMILES CC(=O)N[C@@H](CCCC(=O)O)C(=O)N1CCC[C@@H]1C(=O)N[C@@H](CCCNC(=N)N)C(=O)N[C@@H](Cc1c[nH]cn1)C(=O)N[C@@H](CC1CCCCC1)C(=O)N[C@@H](CC1CCCCC1)C(=O)N[C@@H](CC(N)=O)C(=O)N[C@@H](CC(C)C)C(=O)NC(C)(C)C(=O)N[C@H](C(=O)N[C@@H](CCCNC(=N)N)C(=O)N[C@@H](CCC(N)=O)C(=O)N[C@@H](CCCNC(=N)N)C(=O)N[C@@H](CC1CCCCC1)C(N)=O)[C@@H](C)O) [compound No. 159] | 2.8 | 1.2
2 | Ac-[MeSer23, D-Pro24, Cha27,28,36, Aib31]-PYY(22-36) (Ac-A[NMeS][dP]RH[Cha][Cha]NL[Aib]TRQR[Cha]-NH2; SMILES CC(=O)N[C@@H](C)C(=O)N(C)[C@@H](CO)C(=O)N1CCC[C@@H]1C(=O)N[C@@H](CCCNC(=N)N)C(=O)N[C@@H](Cc1c[nH]cn1)C(=O)N[C@@H](CC1CCCCC1)C(=O)N[C@@H](CC1CCCCC1)C(=O)N[C@@H](CC(N)=O)C(=O)N[C@@H](CC(C)C)C(=O)NC(C)(C)C(=O)N[C@H](C(=O)N[C@@H](CCCNC(=N)N)C(=O)N[C@@H](CCC(N)=O)C(=O)N[C@@H](CCCNC(=N)N)C(=O)N[C@@H](CC1CCCCC1)C(N)=O)[C@@H](C)O) [compound No. 129] | 12 | 7.8
3 | Isobutanoyl-[D-Pro24, Pya(4)26, Cha27,36, Aib28,31, Lys30]-PYY(23-36) (Isobutyryl-S[dP]R[4Pal][Cha][Aib]NK[Aib]TRQR[Cha]-NH2; SMILES CC(C)C(=O)N[C@@H](CO)C(=O)N1CCC[C@@H]1C(=O)N[C@@H](CCCNC(=N)N)C(=O)N[C@@H](Cc1ccncc1)C(=O)N[C@@H](CC1CCCCC1)C(=O)NC(C)(C)C(=O)N[C@@H](CC(N)=O)C(=O)N[C@@H](CCCCN)C(=O)NC(C)(C)C(=O)N[C@H](C(=O)N[C@@H](CCCNC(=N)N)C(=O)N[C@@H](CCC(N)=O)C(=O)N[C@@H](CCCNC(=N)N)C(=O)N[C@@H](CC1CCCCC1)C(N)=O)[C@@H](C)O) [compound No. 212] | 0.79 | 0.89
4 | Ac-[D-Pro24, Pya(4)26, Cha27, Aib28,31, Lys30, Phe(2Me)36]-PYY(23-36) (Ac-S[dP]R[4Pal][Cha][Aib]NK[Aib]TRQR[Phe(2-Me)]-NH2; SMILES CC(=O)N[C@@H](CO)C(=O)N1CCC[C@@H]1C(=O)N[C@@H](CCCNC(=N)N)C(=O)N[C@@H](Cc1ccncc1)C(=O)N[C@@H](CC1CCCCC1)C(=O)NC(C)(C)C(=O)N[C@@H](CC(N)=O)C(=O)N[C@@H](CCCCN)C(=O)NC(C)(C)C(=O)N[C@H](C(=O)N[C@@H](CCCNC(=N)N)C(=O)N[C@@H](CCC(N)=O)C(=O)N[C@@H](CCCNC(=N)N)C(=O)N[C@@H](Cc1ccccc1C)C(N)=O)[C@@H](C)O) [compound No. 257] | 1.0 | 0.98
5 | Ac-[D-Pro24, Pya(4)26, Cha27,36, Aib28,31, Nle30]-PYY(23-36) (Ac-S[dP]R[4Pal][Cha][Aib]N[Nle][Aib]TRQR[Cha]-NH2; SMILES CCCC[C@H](NC(=O)[C@H](CC(N)=O)NC(=O)C(C)(C)NC(=O)[C@H](CC1CCCCC1)NC(=O)[C@H](Cc1ccncc1)NC(=O)[C@H](CCCNC(=N)N)NC(=O)[C@H]1CCCN1C(=O)[C@H](CO)NC(C)=O)C(=O)NC(C)(C)C(=O)N[C@H](C(=O)N[C@@H](CCCNC(=N)N)C(=O)N[C@@H](CCC(N)=O)C(=O)N[C@@H](CCCNC(=N)N)C(=O)N[C@@H](CC1CCCCC1)C(N)=O)[C@@H](C)O) [compound No. 267] | 0.96 | 1.4
6 | Ac-[Aze(3)24, Cha27,28,36, Aib31]-PYY(23-36) (Ac-S[Azetidine3carboxylic]RH[Cha][Cha]NL[Aib]TRQR[Cha]-NH2; SMILES CC(=O)N[C@@H](CO)C(=O)N1CC(C(=O)N[C@@H](CCCNC(=N)N)C(=O)N[C@@H](Cc2c[nH]cn2)C(=O)N[C@@H](CC2CCCCC2)C(=O)N[C@@H](CC2CCCCC2)C(=O)N[C@@H](CC(N)=O)C(=O)N[C@@H](CC(C)C)C(=O)NC(C)(C)C(=O)N[C@H](C(=O)N[C@@H](CCCNC(=N)N)C(=O)N[C@@H](CCC(N)=O)C(=O)N[C@@H](CCCNC(=N)N)C(=O)N[C@@H](CC2CCCCC2)C(N)=O)[C@@H](C)O)C1) [compound No. 113] | 11 | 4.7
7 | Benzoyl-[Cha27,36, Ile28,31, Phe(4NH2)30]-PYY(25-36) (Bz-RH[Cha]IN[Phe(4-NH2)]ITRQR[Cha]-NH2; SMILES CC[C@H](C)[C@H](NC(=O)[C@H](CC1CCCCC1)NC(=O)[C@H](Cc1c[nH]cn1)NC(=O)[C@H](CCCNC(=N)N)NC(=O)c1ccccc1)C(=O)N[C@@H](CC(N)=O)C(=O)N[C@@H](Cc1ccc(N)cc1)C(=O)N[C@H](C(=O)N[C@H](C(=O)N[C@@H](CCCNC(=N)N)C(=O)N[C@@H](CCC(N)=O)C(=O)N[C@@H](CCCNC(=N)N)C(=O)N[C@@H](CC1CCCCC1)C(N)=O)[C@@H](C)O)[C@@H](C)CC) [compound No. 73] | 12 | 6.6
8 | Ac-[D-Pro24, Cha27,28,36, Dab30, Aib31]-PYY(23-36) (Ac-S[dP]RH[Cha][Cha]N[Dab][Aib]TRQR[Cha]-NH2; SMILES CC(=O)N[C@@H](CO)C(=O)N1CCC[C@@H]1C(=O)N[C@@H](CCCNC(=N)N)C(=O)N[C@@H](Cc1c[nH]cn1)C(=O)N[C@@H](CC1CCCCC1)C(=O)N[C@@H](CC1CCCCC1)C(=O)N[C@@H](CC(N)=O)C(=O)N[C@@H](CCN)C(=O)NC(C)(C)C(=O)N[C@H](C(=O)N[C@@H](CCCNC(=N)N)C(=O)N[C@@H](CCC(N)=O)C(=O)N[C@@H](CCCNC(=N)N)C(=O)N[C@@H](CC1CCCCC1)C(N)=O)[C@@H](C)O) [compound No. 165] | 2.6 | 1.6
9 | Isobutanoyl-[Abu26, Cha27,36, Gly(cPr)28, Aib31]-PYY(25-36) (Isobutyryl-R[Abu][Cha][Gly(cPr)]NL[Aib]TRQR[Cha]-NH2; SMILES CC[C@H](NC(=O)[C@H](CCCNC(=N)N)NC(=O)C(C)C)C(=O)N[C@@H](CC1CCCCC1)C(=O)N[C@H](C(=O)N[C@@H](CC(N)=O)C(=O)N[C@@H](CC(C)C)C(=O)NC(C)(C)C(=O)N[C@H](C(=O)N[C@@H](CCCNC(=N)N)C(=O)N[C@@H](CCC(N)=O)C(=O)N[C@@H](CCCNC(=N)N)C(=O)N[C@@H](CC1CCCCC1)C(N)=O)[C@@H](C)O)C1CC1) [compound No. 93] | 52 | 41
10 | Ac-[D-Pro24, Lys(Ac)25, Pya(4)26, Cha27,36, Aib28,31, Lys30]-PYY(23-36) (Ac-S[dP]K(Ac)[4Pal][Cha][Aib]NK[Aib]TRQR[Cha]-NH2; SMILES CC(=O)NCCCC[C@H](NC(=O)[C@H]1CCCN1C(=O)[C@H](CO)NC(C)=O)C(=O)N[C@@H](Cc1ccncc1)C(=O)N[C@@H](CC1CCCCC1)C(=O)NC(C)(C)C(=O)N[C@@H](CC(N)=O)C(=O)N[C@@H](CCCCN)C(=O)NC(C)(C)C(=O)N[C@H](C(=O)N[C@@H](CCCNC(=N)N)C(=O)N[C@@H](CCC(N)=O)C(=O)N[C@@H](CCCNC(=N)N)C(=O)N[C@@H](CC1CCCCC1)C(N)=O)[C@@H](C)O) [compound No. 280] | 6.6 | 4.2
11 | Benzoyl-[Cha27,28,36, Aib31]-PYY(25-36) (Bz-RH[Cha][Cha]NL[Aib]TRQR[Cha]-NH2; SMILES CC(C)C[C@H](NC(=O)[C@H](CC(N)=O)NC(=O)[C@H](CC1CCCCC1)NC(=O)[C@H](CC1CCCCC1)NC(=O)[C@H](Cc1c[nH]cn1)NC(=O)[C@H](CCCNC(=N)N)NC(=O)c1ccccc1)C(=O)NC(C)(C)C(=O)N[C@H](C(=O)N[C@@H](CCCNC(=N)N)C(=O)N[C@@H](CCC(N)=O)C(=O)N[C@@H](CCCNC(=N)N)C(=O)N[C@@H](CC1CCCCC1)C(N)=O)[C@@H](C)O) [compound No. 64] | 28 | 18
12 | Ac-[D-Hyp24, Pya(4)26, Cha27,36, Aib28,31, Lys30]-PYY(23-36) [compound No. 207] | 1.1 | 0.86
13 | Isobutanoyl-[Abu26,27, Cha28,36, Aib31]-PYY(25-36) (Isobutyryl-R[Abu][Abu][Cha]NL[Aib]TRQR[Cha]-NH2; SMILES CC[C@H](NC(=O)[C@H](CCCNC(=N)N)NC(=O)C(C)C)C(=O)N[C@@H](CC)C(=O)N[C@@H](CC1CCCCC1)C(=O)N[C@@H](CC(N)=O)C(=O)N[C@@H](CC(C)C)C(=O)NC(C)(C)C(=O)N[C@H](C(=O)N[C@@H](CCCNC(=N)N)C(=O)N[C@@H](CCC(N)=O)C(=O)N[C@@H](CCCNC(=N)N)C(=O)N[C@@H](CC1CCCCC1)C(N)=O)[C@@H](C)O) [compound No. 94] | 31 | 37
